In article PMC7232412:

B1: unnamed (parent)
chain 1: MAVSESQLKKMVSKYKYRDLTVRETVNVITLYKDLKPVLDSYVFNDGSSRELMNLTGTIPVPYRGNTYNIPICLWLLDTYPYNPPICFVKPTSSMTIKTGKHVDANGKIYLPYLHEWKHPQSDLLGLIQVMIVVFGDEPPVFSRPISASYPPYQATGPPNTSYMPGMPGGISPYPSGYPPNPSGYPGCPYPPGGPYPATTSSQYPSQPPVTTVGPSRDGTISEDTIRASLISAVSDKLRWRMKEEMDRAQAELNALKRTEEDLKKGHQKLEEMVTRLDQEVAEVDKNIELLKKKDEELSSALEKMENQSENNDIDEVIIPTAPLYKQILNLYAEENAIEDTIFYLGEALRRGVIDLDVFLKHVRLLSRKQFQLRALMQKARKTAGLSDLY
chain 2: LQSRPEPTAPPEESFRSGVETTTPPQKQEPIDKELYPLTSLRSLFGNDPSSQ

Variants of: B1
Assay: yeast 2-hybrid assay
Conditions: with partner chain of the complex shown; parent: 1; read off a plot

Variant	ratio to parent
chain 1 S41A	1.3
chain 1 Q7A L8A	1.1
chain 1 Y42A	0.95
chain 1 K10A	2.9
chain 1 M11A V12A S13A K14A	1.9
chain 1 K9A K10A	9.3
chain 1 K16A	2.4
chain 1 Y82A	0.8
chain 1 Y110A	0.35
